Our source for the Kd values is patent publication US9340584 (dated 2016).

B1: RLuc-H6 (other)
chain: MVKQIESKTAFQEALDAAGDKLVVVDFSATDRKPWKTRGWSGPSKMIKPFFHSLSEKYSNVIFLEVDVDDAQDVASEAFGLFSFPLLPTFQFFKKGQKVGEFSGANKEKLEATINELV
B2: mutant TRX protein H6 (HSA binder, purified) (designed binder)
chain: MVKQIESKTAFQEALDAAGDKLVVVDFSATDRKPWKTRGWSGPSKMIKPFFHSLSEKYSNVIFLEVDVDDAQDVASEAFGLFSFPLLPTFQFFKKGQKVGEFSGANKEKLEATINELV
B3: RLuc-F3 (other)
chain: MVKQIESKTAFQEALDAAGDKLVVVDFSATGGTPGRRNRWSGPSKMIKPFFHSLSEKYSNVIFLEVDVDDAQDVASEAFCEFCFPFLPTFQFFKKGQKVGEFSGANKEKLEATINELV
B4: mutant TRX protein F3 (HSA binder, purified) (designed binder)
chain: MVKQIESKTAFQEALDAAGDKLVVVDFSATGGTPGRRNRWSGPSKMIKPFFHSLSEKYSNVIFLEVDVDDAQDVASEAFCEFCFPFLPTFQFFKKGQKVGEFSGANKEKLEATINELV
B5: mutant TRX protein E2 (HSA binder, purified) (designed binder)
chain: MVKQIESKTAFQEALDAAGDKLVVVDFSATKNEKRDVAEWSGPSKMIKPFFHSLSEKYSNVIFLEVDVDDAQDVASEAFGFFGFPVLPTFQFFKKGQKVGEFSGANKEKLEATINELV
B6: RLuc-E2 (other)
chain: MVKQIESKTAFQEALDAAGDKLVVVDFSATKNEKRDVAEWSGPSKMIKPFFHSLSEKYSNVIFLEVDVDDAQDVASEAFGFFGFPVLPTFQFFKKGQKVGEFSGANKEKLEATINELV

This assay addresses human serum albumin (human, UniProt P02768 25-609). In words: SPR. Background: SPR reads the build-up and loss of mass on a sensor chip optically.
In general, Kd refers to the concentration at which binding is half-saturated. As to B1, the affinity, expressed as Kd, was 2460 nM. This counts as single-digit micromolar.

For B2, the Kd worked out at 870 nM. This Kd is about 2.8-fold lower than that of the molecule before.

The molecule B3 came in with a Kd of 640 nM.

Turning to B4, the Kd was 520 nM.

The molecule B5 yielded a Kd of 830 nM.

With B6, binding was put at a Kd of 1300 nM.
